Results from patent publication US20140242093A1, “METHODS AND COMPOSITIONS FOR MODULATING THE INNATE IMMUNE RESPONSE AND/OR MYOGENESIS IN A MAMMALIAN SUBJECT” (FRED HUTCHINSON CANCER RESEARCH CENTER, priority 2011, published 2014).

Tested on: control human primary myoblasts
Experiment: Expression microarray of primary myoblasts transduced with lentivirus carrying DUX4-fl, DUX4-s or GFP
Protocol: Primary human myoblasts were collected and cultured as previously described (Snider et al., 2010). Primary myoblasts were maintained at or below 70% confluency for proliferation. For differentiation, cells were allowed to reach 95-100% confluency in growth medium. Once confluency was reached, the cells were changed to differentiation medium (F10 media supplemented with 1% horse serum, 10 μg/mL insulin, and 10 μg/mL transferrin, penicillin/streptomycin) and maintained for 4 days. Human RD cells were grown in DMEM in 10% bovine calf serum (Hyclone) and penicillin/streptomycin. The primary myoblasts were transduced with lentivirus carrying DUX-fl, DUX4- or GFP (MOI=15).
Expression microarrays were performed on the transduced cells at 24 hours after transduction as follows. […] Samples were analyzed by Illumina Human Whole Genome microarrays. Probe intensities were corrected, normalized, and summarized by the Lumi package of Bioconductor (Du et al., 2008). Differentially expressed genes were identified by the LIMMA package of Bioconductor (Wettenhall and Smyth, 2004). Gene set enrichment analysis (GSEA) was performed using the Bioconductor GOstats package (Falcon and Gentleman, 2007).

[1] = 2-fold change and FDR<0.01 vs lenti-GFP, 24 hours after transduction
[2] = 3-fold criteria (>1.584 log2-fold change and FDR<0.01)

B1: DUX4-s: short splice form of DUX4 (SEQ ID NO:112), keeps the double-homeobox domains, lacks the C-terminal activation domain (protein, listed as Homo sapiens)
chain: MALPTPSDSTLPAEARGRGRRRRLVWTPSQSEALRACFERNPYPGIATRERLAQAIGIPEPRVQIWFQNERSRQLRQHRRESRPWPGRRGPPEGRRKRTAVTGSQTALLLRAFEKDRFPGIAAREELARETGLPESRIQIWFQNRRARHPGQGGRAPAQV
How did the “number of genes with decreased expression” value [1] turn out when B1 was run?
Its value is 45 genes.

And the “number of genes with increased expression” value [1]?
Its value is 159 genes.

And the “number of genes decreased” value [2]?
The value was “one”.

And the “number of genes increased” value [2]?
Its value is 37 genes.

And the “BQ437417 (no symbol given) expression fc” value (Refseq BQ437417, cultured human skeletal muscle)?
Its value is −0.126.

What about the “fc of ACVRL1 (expression array)” value (Refseq NM_000020.1) of the same molecule?
The value was 0.06199.

And the “fc of C3 (expression array)” value (Refseq NM_000064.1)?
The value was 0.2479.

And the CA2 expression fc (Refseq NM_000067.1)?
Its CA2 expression fc is 0.1046.

What about the “fc of COL1A1 (expression array)” value (Refseq NM_000088.3) of the same molecule?
The value was −1.257.

And the CST3 fc (Refseq NM_000099.2)?
Its CST3 fc is 0.1574.

What about the ENG fc (Refseq NM_000118.1) of the same molecule?
Its ENG fc is 0.4927.

What about the “fc of GAMT (expression array)” value (Refseq NM_000156.4) of the same molecule?
Its value is −0.3529.

What about the GBE1 fc (Refseq NM_000158.2) of the same molecule?
The GBE1 fc was 0.4818.

And the “fc of IDS (expression array)” value (Refseq NM_000202.3)?
Its value is 0.6655.

What about the KCNA1 expression fc (Refseq NM_000217.2) of the same molecule?
Its KCNA1 expression fc is 0.02842.

What about the SGCG expression fc (Refseq NM_000231.1) of the same molecule?
Its SGCG expression fc is 0.125.

And the NP expression fc (Refseq NM_000270.1)?
The NP expression fc was 0.2279.

And the “fc of PTEN (expression array)” value (Refseq NM_000314.4)?
The value was −0.3029.

And the SLC3A1 expression fc (Refseq NM_000341.2)?
Its SLC3A1 expression fc is 0.003792.

And the SOX9 expression fc (Refseq NM_000346.2)?
Its SOX9 expression fc is −0.3086.

And the “fc of PAFAH1B1 (expression array)” value (Refseq NM_000430.2)?
The value was −1.237.

And the HBA2 expression fc (Refseq NM_000517.3)?
Its HBA2 expression fc is 0.09333.

What about the “fc of HBB (expression array)” value (Refseq NM_000518.4) of the same molecule?
Its value is 1.196.

What about the HBA1 expression fc (Refseq NM_000558.3) of the same molecule?
Its HBA1 expression fc is 0.08066.

And the IL8 expression fc (Refseq NM_000584.2, cultured human skeletal muscle)?
Its IL8 expression fc is 1.186.

What about the “fc of IL15 (expression array)” value (Refseq NM_000585.2) of the same molecule?
The value was −0.1029.

And the TAP1 expression fc (Refseq NM_000593.5, cultured human skeletal muscle)?
Its TAP1 expression fc is 0.6996.

What about the “fc of IL6 (expression array)” value (Refseq NM_000600.1) of the same molecule?
The value was 1.198.

What about the IL10RB fc (Refseq NM_000628.3) of the same molecule?
Its IL10RB fc is −0.05056.

And the “fc of ALDH2 (expression array)” value (Refseq NM_000690.2)?
Its value is 0.2053.

And the “fc of ANXA1 (expression array)” value (Refseq NM_000700.1)?
The value was 0.08537.

And the “fc of CYP2J2 (expression array)” value (Refseq NM_000775.2)?
The value was 1.127.

And the “fc of GAS6 (expression array)” value (Refseq NM_000820.1)?
Its value is −0.3187.

What about the “fc of MME (expression array)” value (Refseq NM_000902.3) of the same molecule?
The value was −0.184.

What about the P4HB fc (Refseq NM_000918.3) of the same molecule?
Its P4HB fc is −0.1927.

And the PTGFR fc (Refseq NM_000959.3)?
Its PTGFR fc is 0.1496.

What about the TOP2A fc (Refseq NM_001067.2) of the same molecule?
Its TOP2A fc is −0.6065.

What about the TYMS fc (Refseq NM_001071.1) of the same molecule?
Its TYMS fc is −0.09199.

What about the VCAM1 expression fc (Refseq NM_001078.2, cultured human skeletal muscle) of the same molecule?
The VCAM1 expression fc was 0.6349.

What about the ALOX15B fc (Refseq NM_001141.2) of the same molecule?
Its ALOX15B fc is 0.4518.

And the ANPEP expression fc (Refseq NM_001150.1, cultured human skeletal muscle)?
Its ANPEP expression fc is 0.3635.

What about the ART3 expression fc (Refseq NM_001179.3) of the same molecule?
Its ART3 expression fc is 0.09073.

What about the CA12 expression fc (Refseq NM_001218.3, cultured human skeletal muscle) of the same molecule?
The CA12 expression fc was 0.954.

What about the “fc of CASP4 (expression array)” value (Refseq NM_001225.3) of the same molecule?
Its value is 0.6908.

And the CD68 fc (Refseq NM_001251.1)?
The CD68 fc was 1.175.

What about the CLIC1 fc (Refseq NM_001288.4) of the same molecule?
Its CLIC1 fc is 0.3089.

What about the CXADR expression fc (Refseq NM_001338.3) of the same molecule?
The CXADR expression fc was −0.07005.

What about the DPYSL2 fc (Refseq NM_001386.4) of the same molecule?
Its DPYSL2 fc is 0.2285.

What about the EMP3 fc (Refseq NM_001425.1) of the same molecule?
Its EMP3 fc is −0.2096.

What about the FLT3LG fc (Refseq NM_001459.2) of the same molecule?
Its FLT3LG fc is 0.3873.

What about the CXCL1 expression fc (Refseq NM_001511.1, cultured human skeletal muscle) of the same molecule?
The CXCL1 expression fc was 0.2028.

And the “fc of HAS1 (expression array)” value (Refseq NM_001523.1)?
The value was 0.217.

What about the PRMT2 fc (Refseq NM_001535.2) of the same molecule?
Its PRMT2 fc is 0.07412.

What about the NDST1 fc (Refseq NM_001543.3) of the same molecule?
The NDST1 fc was −0.6912.

And the IFIT2 expression fc (Refseq NM_001547.4, cultured human skeletal muscle)?
Its IFIT2 expression fc is 2.07.

And the IFIT1 expression fc (Refseq NM_001548.3, cultured human skeletal muscle)?
The IFIT1 expression fc was 0.7206.

What about the IFIT3 expression fc (Refseq NM_001549.2, cultured human skeletal muscle) of the same molecule?
The IFIT3 expression fc was 1.806.

And the IFRD1 expression fc (Refseq NM_001550.2)?
Its IFRD1 expression fc is −0.192.

And the IGFBP4 expression fc (Refseq NM_001552.2, cultured human skeletal muscle)?
The IGFBP4 expression fc was 0.4048.

And the “fc of CXCL10 (expression array)” value (Refseq NM_001565.2)?
The value was 3.235.

And the AARS fc (Refseq NM_001605.2)?
The AARS fc was 0.2776.

And the ACP2 fc (Refseq NM_001610.1)?
The ACP2 fc was 0.2225.

What about the TRIM23 expression fc (Refseq NM_001656.3) of the same molecule?
The TRIM23 expression fc was 0.6303.

And the ARSD fc (Refseq NM_001669.2)?
Its ARSD fc is −0.2052.

And the “fc of AUH (expression array)” value (Refseq NM_001698.1)?
The value was 0.1604.

What about the CFB expression fc (Refseq NM_001710.4, cultured human skeletal muscle) of the same molecule?
The CFB expression fc was 0.6337.

And the C1R expression fc (Refseq NM_001733.4, cultured human skeletal muscle)?
The C1R expression fc was 0.4933.

What about the CAV1 fc (Refseq NM_001753.3) of the same molecule?
The CAV1 fc was −0.1911.

What about the “fc of RUNX1 (expression array)” value (Refseq NM_001754.3) of the same molecule?
Its value is −1.047.
